This is an account of results in publication PMC6755812.

Data set [1] deals with bovine pancreas insulin (bovine).
Data set [2] concerns the target Escherichia coli peptide methionine sulfoxide reductase A (E. coli) (UniProt P0A744).
Data set [3] deals with Escherichia coli thioredoxin reductase (E. coli) (UniProt P0A9P4).
The target in another data set is Cys32 (UniProt position 33, FWAEWCGPCKM). The conditions noted are these: reduced (dithiol) form implied; not stated explicitly; cited from earlier work.

Sequence of Escherichia coli thioredoxin (P0AA25 2-109): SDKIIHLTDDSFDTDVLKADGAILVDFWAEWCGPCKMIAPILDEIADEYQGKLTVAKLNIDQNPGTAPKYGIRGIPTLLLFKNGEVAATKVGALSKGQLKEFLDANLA
Sequence of Escherichia coli peptide methionine sulfoxide reductase A (E. coli) (P0A744 2-212): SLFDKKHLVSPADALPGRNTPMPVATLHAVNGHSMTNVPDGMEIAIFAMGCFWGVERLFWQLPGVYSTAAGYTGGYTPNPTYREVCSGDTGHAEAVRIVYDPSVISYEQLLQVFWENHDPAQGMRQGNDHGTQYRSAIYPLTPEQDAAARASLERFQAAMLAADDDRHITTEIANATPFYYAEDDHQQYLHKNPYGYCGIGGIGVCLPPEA
Sequence of Escherichia coli thioredoxin reductase (E. coli) (P0A9P4 2-321): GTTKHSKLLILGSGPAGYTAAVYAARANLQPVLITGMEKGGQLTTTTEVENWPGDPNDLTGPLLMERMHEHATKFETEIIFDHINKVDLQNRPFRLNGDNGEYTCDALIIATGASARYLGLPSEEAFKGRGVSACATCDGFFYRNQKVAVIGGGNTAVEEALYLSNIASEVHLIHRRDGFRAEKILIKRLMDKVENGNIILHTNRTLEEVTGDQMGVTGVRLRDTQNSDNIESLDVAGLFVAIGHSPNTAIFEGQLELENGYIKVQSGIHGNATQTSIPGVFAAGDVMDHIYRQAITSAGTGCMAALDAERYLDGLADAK

On to “Last Animalia and Fungi Common Ancestor thioredoxin (enzyme)”, for which the Specific insulin reductase activity (0.13 mM insulin, 1 mM DTT, 0.5-2.0 μM Trx, onset of aggregation at OD650, pH 7.0, 25 °C) in data set [1] was 0.0224 min^−1 μM^−1. In data set [2], this substance gave a k1: rate constant of Trx–MsrA mixed disulfide formation (stopped-flow fluorescence, 1 μM oxidized MsrA, 5-100 μM reduced Trx, pH 7.0, 25 °C) of 45000 M^−1 s^−1; a k2: rate constant of mixed disulfide dissociation to reduced MsrA and oxidized Trx (stopped-flow fluorescence, pH 7.0, 25 °C) of 3.47 s^−1.

The substance “Escherichia coli thioredoxin (from UniProt P0AA25 2-109) (enzyme)” displayed a Specific insulin reductase activity (0.13 mM insulin, 1 mM DTT, 0.5-2.0 μM Trx, onset of aggregation at OD650, pH 7.0, 25 °C) in data set [1] of 0.0512 min^−1 μM^−1. In data set [2], the k1: rate constant of Trx–MsrA mixed disulfide formation (stopped-flow fluorescence, 1 μM oxidized MsrA, 5-100 μM reduced Trx, pH 7.0, 25 °C) amounted to 1.01e+06 M^−1 s^−1; the k2: rate constant of mixed disulfide dissociation to reduced MsrA and oxidized Trx (stopped-flow fluorescence, pH 7.0, 25 °C) worked out at 2.89 s^−1. Also, in data set [3], the Catalytic activity of S-MetO reduction by NADPH (Vi/[Trx]) in the reconstituted NADPH/TrxR/Trx/MsrA chain (4.5 μM TrxR, 4.5 μM MsrA, 0.1-1.0 μM Trx, pH 7.0, 25 °C) is 66.9 min^−1 and the kcat/Km: activity as substrate of TrxR (ecTrxR-catalysed reduction of Trx by NADPH, DTNB-coupled, 0.04 μM TrxR, 0.1-300 μM Trx, pH 7.0, 25 °C) was 8.81e+06 M^−1 s^−1.

“Last Archaeal Common Ancestor thioredoxin (enzyme)”: the Specific insulin reductase activity (0.13 mM insulin, 1 mM DTT, 0.5-2.0 μM Trx, onset of aggregation at OD650, pH 7.0, 25 °C) in data set [1] stood at 0.0532 min^−1 μM^−1. In data set [2], this substance gave a k1: rate constant of Trx–MsrA mixed disulfide formation (stopped-flow fluorescence, 1 μM oxidized MsrA, 5-100 μM reduced Trx, pH 7.0, 25 °C) of 518000 M^−1 s^−1; a k2: rate constant of mixed disulfide dissociation to reduced MsrA and oxidized Trx (stopped-flow fluorescence, pH 7.0, 25 °C) of 1.54 s^−1. In addition, in data set [3], the Catalytic activity of S-MetO reduction by NADPH (Vi/[Trx]) in the reconstituted NADPH/TrxR/Trx/MsrA chain (4.5 μM TrxR, 4.5 μM MsrA, 0.1-1.0 μM Trx, pH 7.0, 25 °C) is 9.13 min^−1 and the kcat/Km: activity as substrate of TrxR (ecTrxR-catalysed reduction of Trx by NADPH, DTNB-coupled, 0.04 μM TrxR, 0.1-300 μM Trx, pH 7.0, 25 °C) came out at 118000 M^−1 s^−1.

In turn, “Last γ-Proteobacteria Common Ancestor thioredoxin (enzyme)” showed a Specific insulin reductase activity (0.13 mM insulin, 1 mM DTT, 0.5-2.0 μM Trx, onset of aggregation at OD650, pH 7.0, 25 °C) in data set [1] of 0.0645 min^−1 μM^−1. In data set [2], the k1: rate constant of Trx–MsrA mixed disulfide formation (stopped-flow fluorescence, 1 μM oxidized MsrA, 5-100 μM reduced Trx, pH 7.0, 25 °C) was 369000 M^−1 s^−1; the k2: rate constant of mixed disulfide dissociation to reduced MsrA and oxidized Trx (stopped-flow fluorescence, pH 7.0, 25 °C) was 1.65 s^−1. In data set [3], the Catalytic activity of S-MetO reduction by NADPH (Vi/[Trx]) in the reconstituted NADPH/TrxR/Trx/MsrA chain (4.5 μM TrxR, 4.5 μM MsrA, 0.1-1.0 μM Trx, pH 7.0, 25 °C) came out at 25.8 min^−1 and the kcat/Km: activity as substrate of TrxR (ecTrxR-catalysed reduction of Trx by NADPH, DTNB-coupled, 0.04 μM TrxR, 0.1-300 μM Trx, pH 7.0, 25 °C) was 718000 M^−1 s^−1.

In data set [1], “Last Common Ancestor of the Cyanobacterial, Deinococcus, and Thermus group thioredoxin (enzyme)” came in with a Specific insulin reductase activity (0.13 mM insulin, 1 mM DTT, 0.5-2.0 μM Trx, onset of aggregation at OD650, pH 7.0, 25 °C) of 0.104 min^−1 μM^−1. In addition, in data set [2], the k1: rate constant of Trx–MsrA mixed disulfide formation (stopped-flow fluorescence, 1 μM oxidized MsrA, 5-100 μM reduced Trx, pH 7.0, 25 °C) was determined as 436000 M^−1 s^−1; the k2: rate constant of mixed disulfide dissociation to reduced MsrA and oxidized Trx (stopped-flow fluorescence, pH 7.0, 25 °C) was 2.93 s^−1. For the same substance, in data set [3], the Catalytic activity of S-MetO reduction by NADPH (Vi/[Trx]) in the reconstituted NADPH/TrxR/Trx/MsrA chain (4.5 μM TrxR, 4.5 μM MsrA, 0.1-1.0 μM Trx, pH 7.0, 25 °C) turned out to be 36.9 min^−1 and the kcat/Km: activity as substrate of TrxR (ecTrxR-catalysed reduction of Trx by NADPH, DTNB-coupled, 0.04 μM TrxR, 0.1-300 μM Trx, pH 7.0, 25 °C) is 7.6e+06 M^−1 s^−1.

Consider “Archaeal–Eukaryotic Common Ancestor thioredoxin (enzyme)”, for which the Specific insulin reductase activity (0.13 mM insulin, 1 mM DTT, 0.5-2.0 μM Trx, onset of aggregation at OD650, pH 7.0, 25 °C) in data set [1] was 0.0452 min^−1 μM^−1. In data set [2], this substance came in with a k1: rate constant of Trx–MsrA mixed disulfide formation (stopped-flow fluorescence, 1 μM oxidized MsrA, 5-100 μM reduced Trx, pH 7.0, 25 °C) of 716000 M^−1 s^−1; a k2: rate constant of mixed disulfide dissociation to reduced MsrA and oxidized Trx (stopped-flow fluorescence, pH 7.0, 25 °C) of 1.75 s^−1. Further, in data set [3], the Catalytic activity of S-MetO reduction by NADPH (Vi/[Trx]) in the reconstituted NADPH/TrxR/Trx/MsrA chain (4.5 μM TrxR, 4.5 μM MsrA, 0.1-1.0 μM Trx, pH 7.0, 25 °C) is 14.6 min^−1 and the kcat/Km: activity as substrate of TrxR (ecTrxR-catalysed reduction of Trx by NADPH, DTNB-coupled, 0.04 μM TrxR, 0.1-300 μM Trx, pH 7.0, 25 °C) amounted to 130000 M^−1 s^−1.

“Last Eukaryotic Common Ancestor thioredoxin (enzyme)”: the Specific insulin reductase activity (0.13 mM insulin, 1 mM DTT, 0.5-2.0 μM Trx, onset of aggregation at OD650, pH 7.0, 25 °C) in data set [1] was 0.0738 min^−1 μM^−1. For the same substance, in data set [2], the k1: rate constant of Trx–MsrA mixed disulfide formation (stopped-flow fluorescence, 1 μM oxidized MsrA, 5-100 μM reduced Trx, pH 7.0, 25 °C) came out at 40700 M^−1 s^−1; the k2: rate constant of mixed disulfide dissociation to reduced MsrA and oxidized Trx (stopped-flow fluorescence, pH 7.0, 25 °C) amounted to 3.51 s^−1. The Catalytic activity of S-MetO reduction by NADPH (Vi/[Trx]) in the reconstituted NADPH/TrxR/Trx/MsrA chain (4.5 μM TrxR, 4.5 μM MsrA, 0.1-1.0 μM Trx, pH 7.0, 25 °C) in data set [3] was 0.29 min^−1.

Substance “Last Bacterial Common Ancestor thioredoxin (enzyme)” came in with a Specific insulin reductase activity (0.13 mM insulin, 1 mM DTT, 0.5-2.0 μM Trx, onset of aggregation at OD650, pH 7.0, 25 °C) in data set [1] of 0.0781 min^−1 μM^−1. In data set [2], this substance had a k1: rate constant of Trx–MsrA mixed disulfide formation (stopped-flow fluorescence, 1 μM oxidized MsrA, 5-100 μM reduced Trx, pH 7.0, 25 °C) of 498000 M^−1 s^−1; a k2: rate constant of mixed disulfide dissociation to reduced MsrA and oxidized Trx (stopped-flow fluorescence, pH 7.0, 25 °C) of 2.69 s^−1. In addition, in data set [3], the Catalytic activity of S-MetO reduction by NADPH (Vi/[Trx]) in the reconstituted NADPH/TrxR/Trx/MsrA chain (4.5 μM TrxR, 4.5 μM MsrA, 0.1-1.0 μM Trx, pH 7.0, 25 °C) was found to be 11.7 min^−1 and the kcat/Km: activity as substrate of TrxR (ecTrxR-catalysed reduction of Trx by NADPH, DTNB-coupled, 0.04 μM TrxR, 0.1-300 μM Trx, pH 7.0, 25 °C) worked out at 117000 M^−1 s^−1.

The term pKa denotes the negative logarithm of the acid dissociation constant. On to “Thioredoxin 1 (ecTrx) (Escherichia coli)”, for which the pKa with Cys32 is on record as 7.1.
